Data taken from the supplement of paper PMC10567573.

B1: C1orf137 (parent)
chain: RQHHHQSSFPGSLPQETNLTLKVC

Variants of: B1
Assay: protein stability index of a GFP-peptide fusion (GPS, HEK-293T) (PSI 1-6); higher = more stable
Conditions: c terminus: a fixed tail appended
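Further: lentivirally expressed fusions sorted by FACS into six bins by GFP to DsRed ratio, PSI derived from sequencing read proportions per bin multiplied by bin number.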

| Variant | protein stability index |
| --- | --- |
| RQHHHQSSFPGSLPQNTNLTLKVC [E16N] | 2.8 |
| RQHHHQSSFPGSLPQMTNLTLKVC [E16M] | 2.48 |
| RQHHHQSSFPGSLPQITNLTLKVC [E16I] | 1.75 |
| RQHHHQSSFPGSLPQSTNLTLKVC [E16S] | 2.63 |
| RQHHHQSSFPGSLPQGTNLTLKVC [E16G] | 2.39 |
| RQHHHQSSFPGSLPQWTNLTLKVC [E16W] | 1.55 |
| RQHHHQSSFPGSLPQATNLTLKVC [E16A] | 2.33 |
| RQHHHQSSFPGSLPQDTNLTLKVC [E16D] | 3.63 |
| RQHHHQSSFPGSLPQRTNLTLKVC [E16R] | 2.34 |
| RQHHHQSSFPGSLPQPTNLTLKVC [E16P] | 2.99 |
| RQHHHQSSFPGSLPQYTNLTLKVC [E16Y] | 1.72 |
| RQHHHQSSFPGSLPQKTNLTLKVC [E16K] | 2.57 |
| RQHHHQSSFPGSLPQTTNLTLKVC [E16T] | 2.69 |
| RQHHHQSSFPGSLPQLTNLTLKVC [E16L] | 1.7 |
| RQHHHQSSFPGSLPQVTNLTLKVC [E16V] | 1.57 |
| RQHHHQSSFPGSLPQCTNLTLKVC [E16C] | 1.47 |
| RQHHHQSSFPGSLPQQTNLTLKVC [E16Q] | 2.57 |
| RQHHHQSSFPGSLPQHTNLTLKVC [E16H] | 2.87 |
| RQHHHQSSFPLSLPQETNLTLKVC [G11L] | 2.72 |
| RQHHHQSSFPQSLPQETNLTLKVC [G11Q] | 3.07 |
| RQHHHQSSFPNSLPQETNLTLKVC [G11N] | 3.01 |
| RQHHHQSSFPCSLPQETNLTLKVC [G11C] | 2.61 |
| RQHHHQSSFPKSLPQETNLTLKVC [G11K] | 3.79 |
| RQHHHQSSFPESLPQETNLTLKVC [G11E] | 4.03 |

| Variant | protein stability index |
| --- | --- |
| RQHHHQSSFPPSLPQETNLTLKVC [G11P] | 2.53 |
| RQHHHQSSFPHSLPQETNLTLKVC [G11H] | 2.98 |
| RQHHHQSSFPMSLPQETNLTLKVC [G11M] | 3.24 |
| RQHHHQSSFPVSLPQETNLTLKVC [G11V] | 2.98 |
| RQHHHQSSFPRSLPQETNLTLKVC [G11R] | 2.44 |
| RQHHHQSSFPWSLPQETNLTLKVC [G11W] | 2.24 |
| RQHHHQSSFPISLPQETNLTLKVC [G11I] | 2.85 |
| RQHHHQSSFPDSLPQETNLTLKVC [G11D] | 2.25 |
| RQHHHQSSFPSSLPQETNLTLKVC [G11S] | 2.9 |
| RQHHHQSSFPTSLPQETNLTLKVC [G11T] | 2.66 |
| RQHHHQSSFPASLPQETNLTLKVC [G11A] | 2.21 |
| RQHHHQSSFPYSLPQETNLTLKVC [G11Y] | 1.95 |
| RQHHHQSSFPFSLPQETNLTLKVC [G11F] | 2.28 |
| RQHHHQSSFPGMLPQETNLTLKVC [S12M] | 2.73 |
| RQHHHQSSFPGELPQETNLTLKVC [S12E] | 3.46 |
| RQHHHQSSFPGALPQETNLTLKVC [S12A] | 3.19 |
| RQHHHQSSFPGGLPQETNLTLKVC [S12G] | 2.96 |
| RQHHHQSSFPGWLPQETNLTLKVC [S12W] | 2.44 |
| RQHHHQSSFPGDLPQETNLTLKVC [S12D] | 3.19 |
| RQHHHQSSFPGNLPQETNLTLKVC [S12N] | 2.99 |
| RQHHHQSSFPGQLPQETNLTLKVC [S12Q] | 2.55 |
| RQHHHQSSFPGTLPQETNLTLKVC [S12T] | 2.99 |
| RQHHHQSSFPGCLPQETNLTLKVC [S12C] | 2.37 |
| RQHHHQSSFPGVLPQETNLTLKVC [S12V] | 3.38 |

| Variant | protein stability index |
| --- | --- |
| RQHHHQSSFPGYLPQETNLTLKVC [S12Y] | 2.27 |
| RQHHHQSSFPGRLPQETNLTLKVC [S12R] | 3.17 |
| RQHHHQSSFPGLLPQETNLTLKVC [S12L] | 2.66 |
| RQHHHQSSFPGKLPQETNLTLKVC [S12K] | 2.98 |
| RQHHHQSSFPGHLPQETNLTLKVC [S12H] | 2.38 |
| RQHHHQSSFPGPLPQETNLTLKVC [S12P] | 2.82 |
| RQHHHQSSFPGILPQETNLTLKVC [S12I] | 2.41 |
| RQHHHQSSFPGFLPQETNLTLKVC [S12F] | 2.41 |
| RQHHHQSSFPGSNPQETNLTLKVC [L13N] | 3.71 |
| RQHHHQSSFPGSQPQETNLTLKVC [L13Q] | 2.89 |
| RQHHHQSSFPGSIPQETNLTLKVC [L13I] | 3.2 |
| RQHHHQSSFPGSEPQETNLTLKVC [L13E] | 3.23 |
| RQHHHQSSFPGSHPQETNLTLKVC [L13H] | 3.21 |
| RQHHHQSSFPGSWPQETNLTLKVC [L13W] | 3.13 |
| RQHHHQSSFPGSCPQETNLTLKVC [L13C] | 2.79 |
| RQHHHQSSFPGSYPQETNLTLKVC [L13Y] | 2.66 |
| RQHHHQSSFPGSPPQETNLTLKVC [L13P] | 3.42 |
| RQHHHQSSFPGSFPQETNLTLKVC [L13F] | 2.78 |
| RQHHHQSSFPGSMPQETNLTLKVC [L13M] | 3.29 |
| RQHHHQSSFPGSDPQETNLTLKVC [L13D] | 4 |
| RQHHHQSSFPGSRPQETNLTLKVC [L13R] | 2.97 |
| RQHHHQSSFPGSTPQETNLTLKVC [L13T] | 3.51 |
| RQHHHQSSFPGSAPQETNLTLKVC [L13A] | 2.72 |
| RQHHHQSSFPGSKPQETNLTLKVC [L13K] | 3.16 |

| Variant | protein stability index |
| --- | --- |
| RQHHHQSSFPGSVPQETNLTLKVC [L13V] | 3.65 |
| RQHHHQSSFPGSSPQETNLTLKVC [L13S] | 3.57 |
| RQHHHQSSFPGSGPQETNLTLKVC [L13G] | 2.98 |
| RQHHHQSSFPGSLPCETNLTLKVC [Q15C] | 2.56 |
| RQHHHQSSFPGSLPSETNLTLKVC [Q15S] | 3.36 |
| RQHHHQSSFPGSLPPETNLTLKVC [Q15P] | 3.05 |
| RQHHHQSSFPGSLPTETNLTLKVC [Q15T] | 3.34 |
| RQHHHQSSFPGSLPEETNLTLKVC [Q15E] | 3.65 |
| RQHHHQSSFPGSLPKETNLTLKVC [Q15K] | 2.46 |
| RQHHHQSSFPGSLPRETNLTLKVC [Q15R] | 2.54 |
| RQHHHQSSFPGSLPAETNLTLKVC [Q15A] | 2.03 |
| RQHHHQSSFPGSLPNETNLTLKVC [Q15N] | 2.47 |
| RQHHHQSSFPGSLPFETNLTLKVC [Q15F] | 1.71 |
| RQHHHQSSFPGSLPWETNLTLKVC [Q15W] | 2.29 |
| RQHHHQSSFPGSLPGETNLTLKVC [Q15G] | 2.19 |
| RQHHHQSSFPGSLPMETNLTLKVC [Q15M] | 2.29 |
| RQHHHQSSFPGSLPLETNLTLKVC [Q15L] | 2.19 |
| RQHHHQSSFPGSLPIETNLTLKVC [Q15I] | 2.53 |
| RQHHHQSSFPGSLPVETNLTLKVC [Q15V] | 2.6 |
| RQHHHQSSFPGSLPYETNLTLKVC [Q15Y] | 2.28 |
| RQHHHQSSFPGSLPDETNLTLKVC [Q15D] | 3.26 |
| RQHHHQSSFPGSLPHETNLTLKVC [Q15H] | 2.51 |
